{
  "source": "patent CN111544600A",
  "about": "(UNIV CHINA PHARMA, dated 2020)",
  "binders": {"B1": {"name": "抗人DLL4人源化抗体H3L2 (antibody, V domains shown)", "VH": "QVQLVQSGAEVKKPGSSVKVSCKASGYTFSGYWMQWIKQAPGQGLEWIGAIYPGDGDTRYTQKFKGRATLTADKSTSTAYMELSSLRSEDTAVYYCAGGNFFFDYWGQGTLVTVSS", "VL": "EIVITQSPDFQSVTPKEKVTITCSVSSSISSSYLHWYQQKPDQSPKPWIYGTSNLASGVPSRFSGSGSGTDYTLTINSLEAEDAATYYCQQWSSSPLTFGQGTKLEIKV"}},
  "biological_target": "T1, 人DLL4抗原 (human, UniProt Q9NR61 27-524, limits assumed)",
  "T1 construct": "Coated at 1 μg/mL; also called Delta like 4",
  "T1 sequence (Q9NR61 27-524 limits assumed)": "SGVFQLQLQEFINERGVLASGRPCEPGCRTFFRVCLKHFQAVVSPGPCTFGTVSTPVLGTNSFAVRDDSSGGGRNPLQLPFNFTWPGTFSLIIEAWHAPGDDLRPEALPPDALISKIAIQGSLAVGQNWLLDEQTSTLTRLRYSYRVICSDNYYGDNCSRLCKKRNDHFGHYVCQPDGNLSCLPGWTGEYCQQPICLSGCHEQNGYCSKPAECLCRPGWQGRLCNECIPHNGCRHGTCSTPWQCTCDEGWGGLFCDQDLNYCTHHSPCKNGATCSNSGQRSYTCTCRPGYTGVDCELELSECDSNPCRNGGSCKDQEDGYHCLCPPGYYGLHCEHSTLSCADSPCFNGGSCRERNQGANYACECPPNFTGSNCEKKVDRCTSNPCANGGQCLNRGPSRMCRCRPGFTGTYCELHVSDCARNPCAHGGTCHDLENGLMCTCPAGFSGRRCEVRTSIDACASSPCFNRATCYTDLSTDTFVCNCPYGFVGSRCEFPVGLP",
  "test": "ELISA, DLL4 antigen coated on plate, HRP secondary antibody, OD450-OD630",
  "data": [
    {"binder": "B1", "values": [
      {"measurement": "EC50", "value": 49.2, "unit": "nM"}
    ]}
  ]
}
